The values that follow are results of earlier work, collected in publication PMC5580472.

Data set [1] concerns the target TNF (Homo sapiens) (UniProt P01375).
Data set [2] has the same target. The source holds these as a separate data set.

pKd: −log10 of the molar value. Read-outs that look alike come from different tables or passages of the source.

TNF (Homo sapiens), sequence (P01375 77-233): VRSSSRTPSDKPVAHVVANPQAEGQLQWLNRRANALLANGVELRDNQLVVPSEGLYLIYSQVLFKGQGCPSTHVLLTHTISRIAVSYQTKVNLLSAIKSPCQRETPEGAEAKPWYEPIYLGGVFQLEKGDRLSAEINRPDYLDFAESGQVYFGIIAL
TNF receptor 2, sequence (P20333 23-461): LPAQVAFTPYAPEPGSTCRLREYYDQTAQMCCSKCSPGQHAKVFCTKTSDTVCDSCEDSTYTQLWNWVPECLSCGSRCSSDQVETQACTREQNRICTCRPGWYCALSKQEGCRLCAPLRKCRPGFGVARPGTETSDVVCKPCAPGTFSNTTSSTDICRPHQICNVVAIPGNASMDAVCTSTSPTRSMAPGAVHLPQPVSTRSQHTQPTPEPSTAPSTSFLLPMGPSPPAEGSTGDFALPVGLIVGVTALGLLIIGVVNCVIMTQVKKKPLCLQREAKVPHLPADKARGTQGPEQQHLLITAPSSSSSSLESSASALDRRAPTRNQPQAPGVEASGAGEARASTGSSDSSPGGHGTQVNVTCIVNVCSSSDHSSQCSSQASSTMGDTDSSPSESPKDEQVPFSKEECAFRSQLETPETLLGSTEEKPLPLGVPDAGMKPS
CrmB, sequence (P0DSV7 23-349): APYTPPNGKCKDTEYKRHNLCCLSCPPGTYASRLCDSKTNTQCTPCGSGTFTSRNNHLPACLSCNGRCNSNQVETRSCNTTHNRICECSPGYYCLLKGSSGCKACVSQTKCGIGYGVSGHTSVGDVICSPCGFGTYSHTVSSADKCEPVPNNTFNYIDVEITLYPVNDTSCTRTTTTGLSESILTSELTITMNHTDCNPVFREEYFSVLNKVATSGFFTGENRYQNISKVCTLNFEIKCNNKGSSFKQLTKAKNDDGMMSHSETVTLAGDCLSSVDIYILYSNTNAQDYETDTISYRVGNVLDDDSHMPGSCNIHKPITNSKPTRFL

Usually pKd stands for the negative decadic logarithm of the Kd, by convention in mol/L. With CrmB (from UniProt P0DSV7), the negative logarithm of the Kd (pKd) in data set [1] is 9.55.

Regarding TNF receptor 2 (from UniProt P20333), the negative logarithm of the Kd (pKd) in data set [2] is 9.52.
